Data set [1] deals with the molecule itself. Briefly: cross-linking.
Data set [2] deals with T1, 6His-Flag-DIAP1 (Drosophila, UniProt Q24306 1-438).
T1 sequence (looked up): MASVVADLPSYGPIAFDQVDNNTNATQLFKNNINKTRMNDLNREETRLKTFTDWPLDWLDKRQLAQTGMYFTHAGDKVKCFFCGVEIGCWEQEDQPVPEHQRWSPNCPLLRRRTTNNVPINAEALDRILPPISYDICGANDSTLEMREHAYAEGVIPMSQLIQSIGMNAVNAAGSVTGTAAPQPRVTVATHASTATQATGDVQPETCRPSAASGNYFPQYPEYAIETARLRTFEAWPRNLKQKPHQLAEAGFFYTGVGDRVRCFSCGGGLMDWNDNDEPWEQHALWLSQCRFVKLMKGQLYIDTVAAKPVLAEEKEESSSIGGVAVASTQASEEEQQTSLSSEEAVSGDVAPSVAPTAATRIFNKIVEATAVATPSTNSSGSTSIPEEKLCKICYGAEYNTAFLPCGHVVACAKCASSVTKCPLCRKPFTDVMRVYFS
Briefly: co-IP.

B1: Rpr-His6 (natural protein, Drosophila, UniProt Q24475 1-65, looked up)
chain: MAVAFYIPDQATLLREAEQKEQQILRLRESQWRFLATVVLETLRQYTSCHPKTGRKSGKYRKPSQ
In the case of B1, the binding result in data set [1] is listed as “binds”.

B2: HidΔMTS-His6 (domain or fragment, Drosophila, UniProt Q24106 1-386, looked up)
chain: MAVPFYLPEGGADDVASSSSGASGNSSPHNHPLPSSASSSVSSSGVSSASASSASSSSSASSDGASSAASQSPNTTTSSATQTPMQSPLPTDQVLYALYEWVRMYQSQQSAPQIFQYPPPSPSCNFTGGDVFFPHGHPNPNSNPHPRTPRTSVSFSSGEEYNFFRQQQPQPHPSYPAPSTPQPMPPQSAPPMHCSHSYPQQSAHMMPHHSAPFGMGGTYYAGYTPPPTPNTASAGTSSSSAAFGWHGHPHSPFTSTSTPLSAPVAPKMRLQRSQSDAARRKRLTSTGEDEREYQSDHEATWDEFGDRYDNFTAGRERLQEFNGRIPPRKKKSSNSHSSSSNNPVCHTDSQPGGTSQAESGAIHGHISQQRQVERERQKAKAEKKKP
As to B2, the binding result in data set [2] and in data set [1] was “binds” each time.
